As a reminder, the EC50 is the concentration that produces a half-maximal response. For orientation: Kd means the concentration at which binding is half-saturated. A word on the EC50 (read off the curve): it is the concentration at which the effect is half-maximal.

Residue numbers refer to the chain shown, from its start. Names and notes keep the numbering of the source.

The text below walks through data of US20250206836A1 (ONA THERAPEUTICS S L, published 2025).

Assay [1] deals with T1, human CD36 (on HEK 293 or SCC25 cells) (human, UniProt P16671 2-472).
T1 construct: Overexpressed transiently or stably on HEK 293 cells, or stably on SCC25 cells; also called huCD36
Put plainly: FACS, SCC25 cells stably expressing human CD36. (In general: Flow cytometry measures light scatter and fluorescence of single cells or particles in a stream.)
Protocol: SCC25 cells were treated with 10-fold serial dilution of each antibody (5 dilutions starting at 100 nM). After incubation with the cells, an anti-human fluorescently labelled antibody was added to the cell media, allowed to incubate further, and the unbound antibody was washed off of the cells. Subsequently, the cells were subjected to FACS analysis to determine antibody binding to the cells. The results were fitted to a sigmoidal titration curve. Using a nonlinear regression model, the EC₅₀ values for each antibody were calculated from the GeoMFI and MFI values using the log(agonist) versus response (four parameters) fitting on the data transformed according to X=Log[X] in GraphPad PRISM.

The target of assay [2] is human FcRn (human, UniProt P55899 24-297; P61769 21-119). Put plainly: SPR at pH 5.8, antibody immobilized through its light chains, soluble human FcRn.
Protocol: (§1) The binding of the different Fc-formatted anti-CD36 antibodies to FcγRs and FcRn was measured by SPR by immobilizing the antibodies through their light chains. The setup for these assays orients the antibody such that the Fc domain is solvent-exposed, allowing quantification of the interaction with soluble receptor proteins. Antibodies with well-defined binding properties were included as positive/negative controls in all the assays.
In assay [3] the target is T2, human CD36 (Sino Biological) (human, UniProt P16671 30-439).
T2 construct: Bought protein coated on ELISA plates
Kind of assay: ELISA, plates coated with human CD36 (Sino Biological), antibody titrated, OD630nm. For orientation: ELISA stands for enzyme-linked immunosorbent assay.
Description: Binding was first tested using an ELISA assay in which 96-well ELISA plates were coated with human CD36 (Sino Biological) or mouse CD36 protein.

Assay [4] deals with T3, C1q human protein (human, UniProt P02745 23-245; P02746 28-253; P02747 29-245).
T3 construct: also called complement C1q protein
Kind of assay: ELISA, plates coated with the antibody, C1q human protein titrated, Mean Absorbance (OD Units).
Protocol: Binding to complement C1q protein was also measured, using a standard ELISA assay in which 96-well ELISA plates were coated with the tested antibodies and C1q human protein was added (2.5-fold serial dilution starting at 250 g/mL).

Assay [5] deals with T4, Human FcγRIIb (human, UniProt P31994).
T4 construct: soluble receptor protein; bar 7 of each group
T4 sequence (receptor, looked up): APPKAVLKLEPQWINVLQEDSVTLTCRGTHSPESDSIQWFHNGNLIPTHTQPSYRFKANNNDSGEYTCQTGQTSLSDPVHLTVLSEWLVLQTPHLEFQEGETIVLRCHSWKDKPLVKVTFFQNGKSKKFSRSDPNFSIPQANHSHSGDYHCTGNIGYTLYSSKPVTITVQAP
Put plainly: SPR, antibody immobilized through its light chains, soluble receptor injected; Mean Relative Response (RU). For orientation: SPR reads the build-up and loss of mass on a sensor chip optically.
Protocol: as §1

Assay [6] has as its target T5, Cyno FcγRIIa (Macaca fascicularis, UniProt A0A140HDN0).
T5 construct: soluble receptor protein; bar 8 of each group
T5 sequence (receptor): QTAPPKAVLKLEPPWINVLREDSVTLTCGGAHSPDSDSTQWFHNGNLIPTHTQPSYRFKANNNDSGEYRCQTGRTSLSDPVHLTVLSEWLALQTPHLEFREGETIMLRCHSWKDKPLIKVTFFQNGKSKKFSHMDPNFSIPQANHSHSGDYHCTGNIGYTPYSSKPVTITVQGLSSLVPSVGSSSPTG
The description is as above.
Protocol: as §1

In assay [7] the target is T6, Cyno FcγRIIb (Macaca fascicularis, UniProt A0A140HDP4).
T6 construct: soluble receptor protein; bar 9 of each group
T6 sequence (receptor): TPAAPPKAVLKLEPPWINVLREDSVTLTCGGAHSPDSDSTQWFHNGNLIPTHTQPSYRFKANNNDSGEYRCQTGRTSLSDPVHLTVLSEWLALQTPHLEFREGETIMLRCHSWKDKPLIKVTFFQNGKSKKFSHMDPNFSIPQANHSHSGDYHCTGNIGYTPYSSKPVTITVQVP
The assay is described as above.
Protocol: as §1

The target of assay [8] is T7, Human FcγRI (human, UniProt P12314).
T7 construct: soluble receptor protein; bar 10 of each group
The description is as above.
Protocol: as §1

The target in assay [9] is T8, Human FcγRIIIa (158F) (human, UniProt P08637).
T8 construct: soluble receptor protein; bar 1 of each group
The description is as above.
Protocol: as §1

Assay [10] has as its target T9, Human FcγRIIIa (158V) (human, UniProt P08637).
T9 construct: soluble receptor protein; bar 2 of each group
Described as above.
Protocol: as §1

Assay [11] concerns the target T10, Human FcγRIIIb (human, UniProt O75015).
T10 construct: soluble receptor protein; bar 3 of each group
The assay is described as above.
Protocol: as §1

The target in assay [12] is T11, Cyno FcγRIII (cynomolgus monkey, UniProt Q8SPW2).
T11 construct: soluble receptor protein; bar 4 of each group
The assay is described as above.
Protocol: as §1

In assay [13] the target is T12, Human FcγRIIa (131H) (human, UniProt P12318).
T12 construct: soluble receptor protein; bar 5 of each group
T12 sequence (receptor, looked up): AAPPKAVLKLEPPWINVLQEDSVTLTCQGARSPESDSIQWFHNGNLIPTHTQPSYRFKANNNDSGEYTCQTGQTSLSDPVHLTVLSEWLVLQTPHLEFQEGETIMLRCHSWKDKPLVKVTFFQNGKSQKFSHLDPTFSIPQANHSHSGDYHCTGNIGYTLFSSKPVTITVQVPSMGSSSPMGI
The assay is described as above.
Protocol: as §1

Assay [14] addresses T13, Human FcγRIIa (131R) (human, UniProt P12318).
T13 construct: soluble receptor protein; bar 6 of each group
T13 sequence (receptor, looked up): T12 sequence (receptor, looked up) with H132R
The description is as above.
Protocol: as §1

Assay [15] has as its target T1, human CD36 (on HEK 293 or SCC25 cells). Kind of assay: FACS, HEK 293 cells.
The target in assay [16] is T14, nonhuman primate CD36 (on HEK 293 cells) (cynomolgus monkey / rhesus macaque, UniProt P16671 2-472 (human entry)).
T14 construct: also called non-human primate CD36 (cynomolgus)
Kind of assay: FACS, HEK 293 cells transiently overexpressing CD36.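 Further: antibody binding to transfected cells detected by flow cytometry with a fluorescent anti-human secondary antibody, EC50 from a four-parameter sigmoidal fit of mean fluorescence intensity.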

Assay [17] has as its target T15, mouse CD36 (on HEK 293 cells) (mouse, UniProt Q08857 1-472).
T15 construct: also called Murine CD36
Described as above.

T1 sequence (P16671 2-472 limits assumed): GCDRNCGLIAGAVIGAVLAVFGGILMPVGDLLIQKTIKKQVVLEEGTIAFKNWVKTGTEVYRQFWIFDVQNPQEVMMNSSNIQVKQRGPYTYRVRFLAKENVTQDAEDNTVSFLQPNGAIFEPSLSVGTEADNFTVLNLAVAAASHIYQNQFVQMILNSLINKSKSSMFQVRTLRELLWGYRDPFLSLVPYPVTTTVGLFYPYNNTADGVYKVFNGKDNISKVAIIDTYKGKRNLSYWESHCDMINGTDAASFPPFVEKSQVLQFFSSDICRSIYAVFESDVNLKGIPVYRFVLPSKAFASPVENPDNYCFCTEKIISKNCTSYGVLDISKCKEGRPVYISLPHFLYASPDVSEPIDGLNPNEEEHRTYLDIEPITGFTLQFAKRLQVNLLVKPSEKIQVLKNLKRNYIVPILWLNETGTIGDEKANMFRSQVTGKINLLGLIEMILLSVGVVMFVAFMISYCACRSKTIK
T14 sequence (P16671 other isoform, or with tags, fused parts or gaps limits assumed): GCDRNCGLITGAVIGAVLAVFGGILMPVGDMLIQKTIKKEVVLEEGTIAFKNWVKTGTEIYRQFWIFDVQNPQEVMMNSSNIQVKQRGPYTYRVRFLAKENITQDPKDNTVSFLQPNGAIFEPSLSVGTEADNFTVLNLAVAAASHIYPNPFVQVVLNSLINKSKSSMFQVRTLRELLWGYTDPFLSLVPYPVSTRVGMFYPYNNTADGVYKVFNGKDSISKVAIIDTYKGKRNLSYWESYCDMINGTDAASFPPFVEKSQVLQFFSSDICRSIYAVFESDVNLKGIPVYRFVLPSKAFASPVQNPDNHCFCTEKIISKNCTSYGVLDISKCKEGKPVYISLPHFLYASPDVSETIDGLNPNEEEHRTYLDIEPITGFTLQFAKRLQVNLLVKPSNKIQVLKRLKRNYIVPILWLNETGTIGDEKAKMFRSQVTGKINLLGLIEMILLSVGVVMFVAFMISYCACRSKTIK
human FcRn, sequence (P55899 24-297 limits assumed, chain 1 of 2): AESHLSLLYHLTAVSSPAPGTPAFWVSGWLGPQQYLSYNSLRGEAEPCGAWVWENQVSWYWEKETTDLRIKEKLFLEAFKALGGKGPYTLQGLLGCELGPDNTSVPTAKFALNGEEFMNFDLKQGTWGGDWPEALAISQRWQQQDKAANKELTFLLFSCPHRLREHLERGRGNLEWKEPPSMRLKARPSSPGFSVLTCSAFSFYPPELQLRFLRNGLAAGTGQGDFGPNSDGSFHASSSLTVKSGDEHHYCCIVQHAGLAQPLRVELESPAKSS
human FcRn, sequence (P61769 21-119 limits assumed, chain 2 of 2): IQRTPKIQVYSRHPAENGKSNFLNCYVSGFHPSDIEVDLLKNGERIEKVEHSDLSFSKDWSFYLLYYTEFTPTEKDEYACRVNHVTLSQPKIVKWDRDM
T15 sequence (Q08857 whole entry): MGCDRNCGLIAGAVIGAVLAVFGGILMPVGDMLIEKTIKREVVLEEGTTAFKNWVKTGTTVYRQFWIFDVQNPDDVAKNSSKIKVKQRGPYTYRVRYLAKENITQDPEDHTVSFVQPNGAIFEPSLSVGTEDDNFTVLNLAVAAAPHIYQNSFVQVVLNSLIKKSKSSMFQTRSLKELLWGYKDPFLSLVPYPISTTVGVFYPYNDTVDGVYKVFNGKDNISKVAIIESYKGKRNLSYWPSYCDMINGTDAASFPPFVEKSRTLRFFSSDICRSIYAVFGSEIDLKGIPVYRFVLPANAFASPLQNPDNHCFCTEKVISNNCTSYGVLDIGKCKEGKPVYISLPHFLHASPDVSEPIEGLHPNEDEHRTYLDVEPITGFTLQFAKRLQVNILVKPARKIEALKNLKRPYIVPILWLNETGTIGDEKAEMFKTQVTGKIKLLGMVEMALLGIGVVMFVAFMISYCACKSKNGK
T9 sequence (P08637 17-208 F176V limits assumed): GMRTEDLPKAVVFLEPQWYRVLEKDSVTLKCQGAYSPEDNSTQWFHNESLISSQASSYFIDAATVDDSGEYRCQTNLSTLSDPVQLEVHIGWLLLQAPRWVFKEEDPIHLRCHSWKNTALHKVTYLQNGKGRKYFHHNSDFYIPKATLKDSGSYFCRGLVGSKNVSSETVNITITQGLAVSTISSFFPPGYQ
T11 sequence (Q8SPW2 17-208 limits assumed): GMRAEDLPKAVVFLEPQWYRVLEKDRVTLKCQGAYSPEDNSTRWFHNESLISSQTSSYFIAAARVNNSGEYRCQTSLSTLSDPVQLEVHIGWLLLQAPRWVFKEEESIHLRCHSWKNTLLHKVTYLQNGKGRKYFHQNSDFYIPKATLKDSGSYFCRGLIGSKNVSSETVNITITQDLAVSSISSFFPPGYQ
T2 sequence (P16671 30-439 limits assumed): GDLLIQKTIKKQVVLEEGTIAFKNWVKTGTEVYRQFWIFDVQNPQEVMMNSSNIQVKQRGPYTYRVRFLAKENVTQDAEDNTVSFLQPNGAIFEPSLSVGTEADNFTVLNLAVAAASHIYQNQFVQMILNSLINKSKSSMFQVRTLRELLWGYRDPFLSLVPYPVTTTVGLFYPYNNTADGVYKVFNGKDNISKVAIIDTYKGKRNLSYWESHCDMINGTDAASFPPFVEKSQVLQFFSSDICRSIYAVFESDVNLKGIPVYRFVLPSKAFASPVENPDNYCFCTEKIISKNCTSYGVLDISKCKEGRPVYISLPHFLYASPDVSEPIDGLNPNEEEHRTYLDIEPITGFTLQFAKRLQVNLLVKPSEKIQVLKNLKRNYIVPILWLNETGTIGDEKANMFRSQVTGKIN
T10 sequence (O75015 17-200 limits assumed): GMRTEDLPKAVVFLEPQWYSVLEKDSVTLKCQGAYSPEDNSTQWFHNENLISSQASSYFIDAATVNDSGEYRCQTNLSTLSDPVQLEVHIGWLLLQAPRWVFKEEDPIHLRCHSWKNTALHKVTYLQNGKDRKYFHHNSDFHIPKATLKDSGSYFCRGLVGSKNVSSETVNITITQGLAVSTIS
T7 sequence (P12314 16-288 limits assumed): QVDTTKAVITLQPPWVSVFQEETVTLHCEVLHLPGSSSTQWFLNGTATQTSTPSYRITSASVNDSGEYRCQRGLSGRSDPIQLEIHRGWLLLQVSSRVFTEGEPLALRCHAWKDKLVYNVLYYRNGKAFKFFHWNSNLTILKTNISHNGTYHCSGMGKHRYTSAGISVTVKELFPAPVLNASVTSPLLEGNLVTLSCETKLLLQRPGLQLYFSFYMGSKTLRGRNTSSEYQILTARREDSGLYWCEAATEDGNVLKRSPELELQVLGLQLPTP
T3 sequence (P02745 23-245 limits assumed, chain 1 of 3): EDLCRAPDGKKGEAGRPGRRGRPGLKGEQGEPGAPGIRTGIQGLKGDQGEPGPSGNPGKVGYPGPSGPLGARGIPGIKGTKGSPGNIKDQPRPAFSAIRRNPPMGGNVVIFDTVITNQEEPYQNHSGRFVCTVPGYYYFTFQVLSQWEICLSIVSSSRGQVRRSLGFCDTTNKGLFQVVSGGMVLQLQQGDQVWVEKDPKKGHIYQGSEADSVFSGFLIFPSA
T3 sequence (P02746 28-253 limits assumed, chain 2 of 3): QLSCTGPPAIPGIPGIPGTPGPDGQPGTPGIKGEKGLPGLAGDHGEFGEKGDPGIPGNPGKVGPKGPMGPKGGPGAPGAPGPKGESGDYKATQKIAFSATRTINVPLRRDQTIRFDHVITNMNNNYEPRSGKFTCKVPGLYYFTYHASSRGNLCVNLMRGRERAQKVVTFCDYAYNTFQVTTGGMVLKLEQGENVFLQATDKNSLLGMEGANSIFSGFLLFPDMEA
T3 sequence (P02747 29-245 limits assumed, chain 3 of 3): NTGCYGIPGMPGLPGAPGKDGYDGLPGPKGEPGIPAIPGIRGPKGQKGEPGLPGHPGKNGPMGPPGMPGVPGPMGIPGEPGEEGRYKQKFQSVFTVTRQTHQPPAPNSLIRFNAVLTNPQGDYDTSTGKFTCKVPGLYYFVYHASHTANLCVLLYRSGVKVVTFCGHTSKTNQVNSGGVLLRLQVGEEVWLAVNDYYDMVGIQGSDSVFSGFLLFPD
T8 sequence (P08637 17-208 limits assumed): as the sequence (P08637 17-208 F176V limits assumed) above, with V160F counted along it

B1: 1G06 (antibody, human IgG1, kappa)
heavy: QVQLKQSGADLVRPGASVKLSCKASGYTFTDYYINWVKQRPGQGLEWIARIYPGSGNTYYNEKFKGKATLTAEKSSSTAYMQLSSLTSEDSAVYFCARGIGGGFGMDYWGQGTSVTVSSASTKGPSVFPLAPSSKSTSGGTAALGCLVKDYFPEPVTVSWNSGALTSGVHTFPAVLQSSGLYSLSSVVTVPSSSLGTQTYICNVNHKPSNTKVDKKVEPKSCDKTHTCPPCPAPESTRGPSVFLFPPKPKDTLMISRTPEVTCVVVDVSHEDPEVKFNWYVDGVEVHNAKTKPREEQYNSTYRVVSVLTVLHQDWLNGKEYKCKVSNKALPAPIEKTISKAKGQPREPQVYTLPPSRDELTKNQVSLTCLVKGFYPSDIAVEWESNGQPENNYKTTPPVLDSDGSFFLYSKLTVDKSRWQQGNVFSCSVMHEALHNHYTQKSLSLSPGK
light: SIVMTQTPKFLLVSAGDRITITCKASQSVSDDVAWYQQKPGQSPKLLIYYASNRYTGVPDRFTGSGYGTDFTFTISTVQAEDLAVYFCQQDYSSPLTFGAGTKLEIKRTVAAPSVFIFPPSDEQLKSGTASVVCLLNNFYPREAKVQWKVDNALQSGNSQESVTEQDSKDSTYSLSSTLTLSKADYEKHKVYACEVTHQGLSSPVTKSFNRGEC
notes: Variable regions of 1G04 on human IgG1 with L234S, L235T, G236R (STR); also called STR; copies: 2 + 2
B1: in assay [1], the concentration giving a half-maximal response (EC50) stood at 0.38 nM. The Kd in [2] was found to be 629 nM. The 50% effective concentration (EC50 (read off the curve)) in assay [3] is roughly 100 pM. For the same molecule, the binding result is on record as “no binding (tested: 250 µg/mL C1q (highest point))” in assay [4]; “no binding” in assay [5]; “no binding” in assay [6]; “no binding” in assay [7]; “no binding” in assay [8]; “binds” in assay [9]. Besides, the binding result in assay [10] is on record as “binds”; in assay [11], “binds”; in assay [12] it was “no binding”; in assay [13], “no binding”; in assay [14] it was “no binding”.

B2: 20G04 (antibody, human IgG1, V domains shown)
VH: QIQLVQSGPELVKPGASVKISCETSGHTFTEYTMHWVKQSHGKSLEWIGGIYPNNGATKYNQKFKGKATLTVDKSSSTAYMELRSLTSEDSAVYYCARDRYDVWFAYWGQGTLVTVSA
VL: ETTVTQSPASLSVATGEKVTIRCITSTDIDDDMNWYQQKPGEPPKLLISEGNTLRPGVPSRFSSGGYGTDFVFTVENMLSEDVADYYCLQSDNLPLTFGAGTKLELK
notes: Chimeric: mouse variable regions on human IgG1 LALA (L234A/L235A)
For B2, the binding result in assay [15] is on record as “binds”. Also, the EC50 in assay [16] worked out at 5.03 nM; in [17], 18.2 nM.
